# T1: Human li p10 (human)
# T1 construct: also called Ii p10; li p10 peptide
# T1 chain: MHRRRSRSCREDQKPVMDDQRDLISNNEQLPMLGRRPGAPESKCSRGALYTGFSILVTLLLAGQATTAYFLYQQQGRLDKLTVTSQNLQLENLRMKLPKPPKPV
# Target: T1, Human li p10
# Test: flow cytometry on fixed and permeabilised human PBMC treated with Cathepsin S inhibitor 1
# Experimental: FIG. 1: Detection of Ii p10 expression on B cells and T cells using a neoepitope antibody. PBMCs isolated from blood donation of a healthy donor (R213) were incubated for 20 h with increasing concentrations of Cathepsin S inhibitor 1 or vehicle. Ii p10 detection on B cells (CD20+) and T cells (CD3+) was determined by flow cytometry using a different neoepitope antibody 7B8 (black).
binder,measurement,value
"anti li p10 antibody 7B8 (antibody, V domains shown, Used unlabeled at 10 ug/mL and detected with PE-conjugated goat anti-rabbit IgG; also called anti-p10 antibody) VH: QSLEESGGRLVTPGTPLTLTCTVSGIDLSTYAMTWVRQAPGKGLEWIGIIYNNGVVVYASWAKGRFTISKTSTTVDLKMTSPTTEDTATYFCCRGYYDGSVNVWGPGTLVTVSL VL: QVLTQTASSVSAVVGGTVTISCQSSQSVYNDNVLSWFQQKPGQPPKLLIYLASTLASGVPSRFSGSGSGTQFTLTISDLECDDAAAYYCLGGYTGDMYAFGGGTEVVV",binding result,binds
